Consider 167 variants from the RNAGym collection of RNA variant scans (doi:10.1073/pnas.2313332121).

First the molecules themselves.
B1: TPR t1 (parent)
chain: GACCAAUCUGCCCUCAGAGCUCGAGAACAUCUUCGGAUGCAGAGGAGGCAGGCUUCGGUGGCGCGAUAGCGCCAACGUCCUCAACCUCCAAUGCAUCCCACCACAUGAUGAUGCCUGAAGAGCCUUGGUUUUUUG

The variants in this data set derive from B1. As to the kind of experiment: polymerase ribozyme fitness, log enrichment relative to wild type (log ratio); higher = more active; in vitro selection for triplet polymerase activity. In short, it runs like this: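 To select mutant libraries of each subunit of a heterodimeric triplet polymerase ribozyme, built by PCR and transcribed, each was annealed with a biotinylated primer, partner subunit and triplets, then incubated frozen at −7 °C. Extended constructs were gel-excised, captured on streptavidin beads and amplified by RT-PCR, in one round carried out in triplicate. Illumina sequencing of input and output libraries kept genotypes with ≥10 input reads and ≥1 read per output. Fitness is the base-2 logarithm of genotype enrichment relative to wild-type enrichment, from inverse-variance-weighted replicate averages.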
G19A G44U C124A: the “polymerase ribozyme fitness (log ratio)” value was -1.74. With C20U C72U G120C, the “polymerase ribozyme fitness (log ratio)” value was -1.44.

As to C20G C123G, the “polymerase ribozyme fitness (log ratio)” value was -2.95.

Regarding C20U G60A, the “polymerase ribozyme fitness (log ratio)” value is -1.03. For the variant C20U G60U, the “polymerase ribozyme fitness (log ratio)” value was -1.52. The result for U21A A46U C53A G63C reads -1.83. The figure for C20G G51A G61A C85G A121U is -7.66; for U21A G45A G58A G60U A100U C101G it is -2.68; for C20U G44A A74G U87C U92A G93A C124U it is -3.64. The figure for U21G G93A C114U is -3.41; for C20A G42U it is -4; for C20U G52A C70U G120A it is -1.85. In the case of C20G A41U C115U, the “polymerase ribozyme fitness (log ratio)” value was -4.6.

Take C20A G39A G42C G61U U129C: the “polymerase ribozyme fitness (log ratio)” value is -5.17.

Consider U21C C22U C53G G57U G60A, for which the “polymerase ribozyme fitness (log ratio)” value is -5.06. As to G19U G71A A118G, the “polymerase ribozyme fitness (log ratio)” value is -6.34. The result for G19U A29G reads -4.96. The figure for C20U G120C is -0.868; for C20U C124G it is 0.389; for C20A C70U it is -3.19. The figure for C20A U32A G93C is -4.21; for U21A U87G it is -0.0526; for U21A U87A it is 0.177. As to G19U G120U, the “polymerase ribozyme fitness (log ratio)” value was -2.46. The result for U21A C22A C40U C73U C101A U133G reads -5.39; that for C20G A43U, -3.89.

With G19U G69C, the “polymerase ribozyme fitness (log ratio)” value is -4.45. The figure for G19U G69A is -3.8; for C22A A37U C53U C73G it is -5.35.

On to C20G C97A U116C C123G, for which the “polymerase ribozyme fitness (log ratio)” value is -5.78. The result for C20A G63A reads -3.49.

C20G G45U G61A: the “polymerase ribozyme fitness (log ratio)” value is -4.19. The result for C20A C49G G93A reads -3.77; that for U21G C64U G77A G93U, -3.27. As to U21G C70U G93A, the “polymerase ribozyme fitness (log ratio)” value was -3.75. In the case of C20A G69U, the “polymerase ribozyme fitness (log ratio)” value is -1.94.

Regarding C20A G69A, the “polymerase ribozyme fitness (log ratio)” value is -5.6.

For C20G C56U A84G A111C C115G A121C U132A, the “polymerase ribozyme fitness (log ratio)” value was -3.92. In the case of G19C G42C C97U C115A A119G U129A, the “polymerase ribozyme fitness (log ratio)” value was -5.99. The figure for U21A C76U A91C is -2.35; for C20U G47U C82G it is -4.12. The result for C20A G42C G48U G122U reads -4.09; that for U21A A119U, -0.295.

Regarding C20U C53G G69C, the “polymerase ribozyme fitness (log ratio)” value was -2.15. The result for C22A C31G G60U U96A reads -6.4.

U21G G47A A100C U109A U112C A119G: the “polymerase ribozyme fitness (log ratio)” value was -7.27. The result for C20A G113C reads -4.5; that for C20U A43U, -2.08; that for U21A G42C, -1.94. Regarding C20U G52A, the “polymerase ribozyme fitness (log ratio)” value is -0.737. The figure for C20A U92G G110U is -5.28; for U21A U59C G69U C123A G128C it is -3.33. As for G19C C53G C62U C86U, the “polymerase ribozyme fitness (log ratio)” value was -2.88. On to G19C C88U, for which the “polymerase ribozyme fitness (log ratio)” value was -2.6. The figure for C20G C76U G93C A95G C124A is -4.72; for C20U G63U G93A C114G it is -2.6; for U21G A121U it is 0.0323.

U21C C22A G69C: the “polymerase ribozyme fitness (log ratio)” value is -4.23. The figure for C20G U33G C34G G44A A46U C98G G110C G113C is -6.24; for C20U C94G C101U U106A it is -5.04. Turning to C20G U116C, the “polymerase ribozyme fitness (log ratio)” value is -3.78. The result for U21A C72A U125G reads -0.653; that for C20A G47U C72A A111C, -3.96; that for U21C G77C, -0.73. The result for U21A C104U reads -0.273; that for G19U G110A, -4.35; that for C20G A43G G48A C72G U106A C123A U129A, -6.54.

Consider C20U G57A G63A C115A, for which the “polymerase ribozyme fitness (log ratio)” value is -3.54. The result for C20U C22A G23U G44U G63U A66C C88G A103C U109A reads -6.53. Consider G19A G48A A91G, for which the “polymerase ribozyme fitness (log ratio)” value is -3.87. Regarding U21G G48C G63A, the “polymerase ribozyme fitness (log ratio)” value is -4.12. The result for C20G G117C reads -5.4; that for G19U C86U, -2.9. The result for C20A C72G U131G reads -3.6; that for C20A C73U, -2.08; that for C20U C22G A50C C97U U106A A121C, -4.3. With C20A G127A, the “polymerase ribozyme fitness (log ratio)” value was -3.23. The figure for C20A C70A C123A U130A is -4.36. With G19U C49U C53U G60U C123U, the “polymerase ribozyme fitness (log ratio)” value is -5.84. On to C20A G60A G113C, for which the “polymerase ribozyme fitness (log ratio)” value is -5.06. Take C20A G39C: the “polymerase ribozyme fitness (log ratio)” value is -3.59. U21G G48C: the “polymerase ribozyme fitness (log ratio)” value was -1.56. Take C20U C62A C104U A119U C123A G128U: the “polymerase ribozyme fitness (log ratio)” value was -2.83. Take G19U C70U U78C C88U: the “polymerase ribozyme fitness (log ratio)” value was -3.57. On to G19U A121U, for which the “polymerase ribozyme fitness (log ratio)” value came to 0.0875. The result for G19A G63C C76A G93A G110C reads -5.44; that for C20A C86G C114U C115U, -5.24; that for C20G A50C, -6.14. For the variant U21A C94G, the “polymerase ribozyme fitness (log ratio)” value is -1.64. U21C G61C: the “polymerase ribozyme fitness (log ratio)” value was -2.11. The result for U21A C123G G128C reads -1.09; that for C20U G77U A91G, -5.11; that for G19A G39U G61U G120C U132A, -1.96. Regarding G19C C70U U112A G120A U130C, the “polymerase ribozyme fitness (log ratio)” value was -2.23. For the variant C20U C56A C73U U129G U130A, the “polymerase ribozyme fitness (log ratio)” value is -3.

Take C20A U59C: the “polymerase ribozyme fitness (log ratio)” value was -2.71. The result for G19A C104U reads -2.85; that for G19U G45U G60U A119U, -5.1. On to C20G G60A G120C, for which the “polymerase ribozyme fitness (log ratio)” value is -4.56. U21A C34A C82A C123U U133G: the “polymerase ribozyme fitness (log ratio)” value is -2.66. Consider C20U C22G G47A C72U C73U C101G A119G G122U, for which the “polymerase ribozyme fitness (log ratio)” value was -6.75.

On to C20G C53A G57U A91C A95G U109G, for which the “polymerase ribozyme fitness (log ratio)” value is -3.11. Turning to C20U C76A, the “polymerase ribozyme fitness (log ratio)” value is -2.08. The figure for C20A G77U G120C is -1.96; for C22A A43U U106C C114U it is -4.24; for C20G G52A A111U it is -3.23. With C22A C70U G77C, the “polymerase ribozyme fitness (log ratio)” value was -6.73.

Turning to C20A G48U C70A U78G G113A G117C, the “polymerase ribozyme fitness (log ratio)” value was -7.02.

C20G G107A C114U G122A: the “polymerase ribozyme fitness (log ratio)” value is -6.03.

Consider C20G U32G C80A C99A C124G, for which the “polymerase ribozyme fitness (log ratio)” value was -5.93. Turning to G19U A111C, the “polymerase ribozyme fitness (log ratio)” value was -2.32. As to G19C G45A C53U, the “polymerase ribozyme fitness (log ratio)” value was -3.65. As to U21C A50U C70U C99U A111U, the “polymerase ribozyme fitness (log ratio)” value was -7.45. The result for C20A G63U C85G reads -5.08; that for C20U A26G G60C A90C, -4.37. The result for C20U G51U G71A reads -6.53; that for C22A A37U, -5.66. The result for C20G G113C reads -1.32; that for C20G G113A, -2.69; that for G19U C53G C73A U112A G135A, -0.754. For C20A G42C A43G, the “polymerase ribozyme fitness (log ratio)” value was -3.32.

As to U21G G71U G110U U112A, the “polymerase ribozyme fitness (log ratio)” value was -1.83. With C20A G52C U125A, the “polymerase ribozyme fitness (log ratio)” value is -3.04.

C20U U96G: the “polymerase ribozyme fitness (log ratio)” value was -1.9. The figure for C20G G63C is -4.72. The result for C20G G63A reads -6.16; that for U21C A95C G107C U109A G113A C124U, -7.51; that for U21G U87C C114U, -1.41. As to U21A A24G C70U, the “polymerase ribozyme fitness (log ratio)” value is -2.2.

On to C20G C72A C115A, for which the “polymerase ribozyme fitness (log ratio)” value was -4.55. Take C20A C124A: the “polymerase ribozyme fitness (log ratio)” value was -0.989. The figure for G19U U87A is -3.34.

Take G19C C49A A50U G69U C89U U106A C123G U132A U133G: the “polymerase ribozyme fitness (log ratio)” value was -1.46.

C22A C40G G58C G60A: the “polymerase ribozyme fitness (log ratio)” value is -4.83. Consider C20U A91U, for which the “polymerase ribozyme fitness (log ratio)” value is -2.81. The figure for U21A G52A C89U is -1.17; for C20U U32C U106A it is -2.46; for C20U U55G C56A it is -1.7.

Consider C20U A37U C72G C101A, for which the “polymerase ribozyme fitness (log ratio)” value was -2.76. The result for C20U C123A reads -0.867; that for U21C A41G G44A C98U, -4.24; that for C20A C22G G113A U132A, -4.93. In the case of G19U G122U C123A U129A, the “polymerase ribozyme fitness (log ratio)” value is -4.23. The figure for C20A A50U U126C is -4.92. For the variant G19C G58C A75U C82G, the “polymerase ribozyme fitness (log ratio)” value was -3.28. The result for G19U C79U C82U A95C C101A reads -4.63; that for G19A C94G, -3.41. With C20U A27C G117U, the “polymerase ribozyme fitness (log ratio)” value was -6. As to C20U C72G C102A, the “polymerase ribozyme fitness (log ratio)” value is -3.19. The result for C20A G45U reads -4.09; that for C20G U106C, -4.11; that for C20U C28U G45C, -4.64.

As to C20A A95G U112A G120U, the “polymerase ribozyme fitness (log ratio)” value was -1.91.

For the variant G19U C64U C124U, the “polymerase ribozyme fitness (log ratio)” value was -2.27. The result for C20G G48A G60U U96A A105U G110U A118U reads -6.72; that for C22A A26U, -4.2. The figure for C20G U112C is -2.48. The figure for C20A C28U C62U C101A G113A is -6.69. For the variant C20A C56U U96G, the “polymerase ribozyme fitness (log ratio)” value was -3.51. The figure for C20G C53U G60A U96A is -5.21.

On to U21C U30G C31A G36C C124A, for which the “polymerase ribozyme fitness (log ratio)” value was -4.94.

Turning to G19U A41U G63C A111G, the “polymerase ribozyme fitness (log ratio)” value was -4.2. The result for C20U C40G reads -2.17. Take C20U C72G A91G C101A C114G: the “polymerase ribozyme fitness (log ratio)” value is -2.36. Turning to C20A G110A, the “polymerase ribozyme fitness (log ratio)” value was -4.21. With C20A G45C G57C C73G U106C U130G, the “polymerase ribozyme fitness (log ratio)” value is -4.17. The figure for C20G G69A G113A is -5.37.
